Results taken from the nanobody polyreactivity screen of Harvey et al. (2022).

Assay: yeast display, Sf9 membrane polyspecificity reagent, FACS + sequencing; frameworks hold sequencing errors
How it was run: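 Galactose-induced (36–48 hours) yeast carrying a synthetic nanobody display library were exposed to 10% biotinylated, detergent-solubilized Sf9 membrane reagent at 4 °C for 1 hour. FACS followed streptavidin microbead enrichment, using low and high (top ~1%) gates for expression (anti-HA) and reagent binding (streptavidin). Colony PCR, MiSeq 2 × 250 sequencing and CDR-length filtering followed. Labels for polyreactivity reflect the gate of origin.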

Sequence | polyreactivity (PSR sort gate)
QVQLVESGGGLVQAGGSLRLSCAGSGIIFAWYAMGWYRQAPGKERELVAAITSGGGSTYYADSVKGRFTISRDNAKNTVYLQMNSLKPEDTAVYYCAADYQTIGWGYDYWGQGTQVTVSS | low polyreactivity
QVQLVESGGGLVQAGGSLRLSCAASGLTFPGYAMGWYRQAPVKERELVAAISYSSGSTYYADSVKGRFTISRDNAKNTVYLQMNILKQEDTEVYYCNRVYRFRGITELDYWGQGTQVTVSS | high polyreactivity
QDQLVESGGGFVQAGGSLRLSCEASGSIFNYYAMGCSRQAPGKERELVAAITTSGGNTYYADSVKGRFTISRDNAKNTVYLQMNSLKPEDTAVYYCAADYWASGGEYDYWGQGTQVTVSS | low polyreactivity
QVQLVESGGGLVQAGGSLRLSCAASGFTFLPAYAMGWYRQAPGKERELVAAITRGGSTYYADSVKGRFTISRDNAKNTVYLQMNSLKPEDTAVYYCNADQKFGFYRSVGDDYWGQGTQVTVSS | low polyreactivity
QVQLVESGGGLVQAGGSLRLSCAASGTFVTYMGWYRQAPGKERELVAAIRNGGSTNYADSVKGRFTISRDNAKNTVYLQMNSLKPEDTAVYYCAARVTYSRGYRGGSRTKYDYWGQGTQVTVSS | low polyreactivity
QVQLVESGGGLVQAGGSLRLSCAASGITFKRYAMGWYIQAPGKERELVAAISDIGGRTYYADSVKGRFTISRDNAKNTVYLQMNSLKPEDTEVYYCAADYYSPVDWYYYWGQGTQVTVSS | high polyreactivity
QVQLVESCGGLVQAGGSLRLSCAASGLTYRYYAMGWYRKAPGKERELVAAITSSGTSTYYADSVKGRFTISRDNAKNTVSLQMNSLKAEDTAVSYCAVRQSQKYGLFYYGGQGTQVTVSS | high polyreactivity
QVQLVESGGGLVQAGGSLRLSCAASGSIFWSYAMGWYRQAPGKERELVAAITRSGGSTYYADSVKGRFTISRDNAKNTVYLQINSLKPEDTAVDYCNAATPYSWGYRRGYWGQGTQVTVSS | high polyreactivity
QVQLVESGGGLVQAGGSLRLSFAAYGSIFWGYAMGWYRQAPGKERELVAAISSSGGNTYYADSVKGRFTISRDNAKNTVYLQMNSLKPEDTAVYYCAATPEFYGGKITDVYSQYGYWGQGTQVTVSS | low polyreactivity
QVQLVESGGCLVQAGGSLSLSCAASGFIFDHNAMGWYRQAPGKERELVAAITWRGDSTYYADSVKGRFTISRDTAKNSVYVQMNSLKPEDTAVYYCNADAILVYYGKLDYWGQGTQVTVSS | low polyreactivity
QVQLVESGGGLVQAGGSLRLSCAASGSIFGDNVMGWYRPAPGKERELVAAISRSGGSTYYADSVKGRFTISRDNAKNTVYVEMNSLIPEDSSVYYCAARYWSWRSFKVDYWGQGTQVTVSS | high polyreactivity
QDQLVESGGGLLQAGGSLRLSCAASGLTFSDYAMGWYRQAPGKEREFVAAITRNGGSTRYADSVKGRFTISRDNAKNTVYVQMNSVKPEDTAVFYCHKVSFVYSRSKGFYYTYLKFEYWGQGTQVTVSS | low polyreactivity
QDHLVESGGGLVQAGGSLRLSCAASGRIFGGYVMGRYRQAPGTERELVAAINGGGGSTYYADSVKGRFTISRDNAKNTVYLQMNSLKPEDTAVYYCMLVKRSQRKSTIDFDYWGQGTQVTVSS | high polyreactivity
QVQLVESGGGLVQAGGSLRLSCAASGSIFADYAMGWSRQAPGKEREFVAAITRSGTSTYYADSVKGRFTISRDNAKNTVYLQMNSLKPEDTAVYYCAKTEVLLYLYTLDYWGQGTQVTVSS | low polyreactivity
QDHLVESGGGLVQAGGSLSLSCAASGIIFYGNAMGLSRQAHGKDRELVAAISWSGSSTYYADSVKGRFTISRDNAKNTVYLQMNSLKPEDNAVYYCNKATSSVRYLKYYYWGQGTQVTVSS | high polyreactivity
QVQLEESGVGLVQAGGSLRLSCAASGSIYGYAMGWYRQSPGKQRELVASISSGGSTYYADSVKGRFTISRDNAKNSVYLQMNSLKPEDTAVYYCAARAYSYQAQSYYWGQGTQVTVSS | high polyreactivity
QVQLVESGGGLVQAGGSLRLSCAASGSIFGFNAMGWYRQAPGKERELVAAISSGSTYYADSVKGRFTISRDNAKNTVYLQMNRLKPEDTAVYYCAATTGYSWYGYWGQGTQVTVSS | low polyreactivity
QVQLVESGGGLVQSGGSLRLSCAASGSTFKYYAMGWYRQAPGKERELVAAISRSGGSTYYADSVKGRFTISRDNAKNTVYIQMNSLKPEDTAVYYCNAYYRYSFCELDKYGYWGQGTQVTVSS | high polyreactivity
HVQLVESGGGLVQAGGSLRLSCAASGLIFSAYAMGWYRQAPGKEREFVAAISRSGGITFYADSVKGRFTISRDNAKNTVYLQMNSLKPEDTAVYYCAARLYKYRRGGGYFWGQGTKVTVSS | high polyreactivity
QVPLVESGGGLVQAGGSLRLSCAASGLIFTGYAMGWYRQAPGKEREVVAAITSAGSTNYADSVKGRFTISRDNAKNTVYLQMNSLKPEDTAVYYCGASRTTTFSWYYLYYLVSKYYYWGQGTQVTVSS | low polyreactivity
QVQLVESGGGLVQAGGSLRLSGAASGFIFAAYAMGWYRQAPGKERELVASISNGGGSTYYADSVKGRYTISRDNAKNTVYLQMNSQNPEVSAVYYCNARQYYAVTRKYYVRLDYWGQGTQVTVES | high polyreactivity
QVQLVESGGGLVQAGGSLRLSCAASGSTFSYNTMGWYRQAPGKERELVATISSSSGSTTYADSVKGRFTISRDIAKNTVYLQINSLKPEDTAVYYCNVDDPFYSGVVEFDYWGQGTQVTVSS | low polyreactivity

Sequence | polyreactivity (PSR sort gate)
QVQLVESGGGLVQAGGSLRLSCAASGSNFRYNAMGWYRQAPGKERALVAAISGRGTSTYYADSVKGRFTISRDNAKNTVYLQMNSLKPEDTAVYYCAAVYFRTFLVEYYYWGQGTQVTVSS | high polyreactivity
QVQLVESGGGLVQAGGSLRLSCASSGRIFRNNVMGWYRQAHGKVRELVAAISATGTITRYADSVKGSFTISRDYSKNTVYLQMNSLKPEDTAVYYCAKDRGWWLGFIMDYWGQGSQVTVSS | low polyreactivity
QVQLVESGGRLVQAGGSLRLTCAASGSTFPKYAMGWYRQAPGKERELVASISVTTGSTYYADSVKGRFTISRDNAKNTVYLQMNSLKPVDTAVYYCAKRTYSRKFRGAYNYWGQGTQVTVSS | high polyreactivity
QVQLVESGGGLVQAGGSLRLSCAASGSTFPSNAMGWYRQAPGKERELVAAISRGGGTTYYADSVKGRFTISRDNAKNTVYLQMNSLKPEDTAVYYCATRGSVGWFDGGGYWGQGTQVTVSS | high polyreactivity
QVQLVESGGGLVQAGGSLRLSCAASGRIFRFYAMGWYRPAPGKERELVAAISSRGGSTYYADSVKGRFTISRDNAKNTDYFQMNSLKPEDTAVYYCNAYGSTSQMDYWGQGTQVTVSS | high polyreactivity
QVQLVESGGGLVQAGGSLRLSCSASGITFIYYMGWYIQAPGKERELVAAITWSGGSTYYADSVKGRFTISRDNAKNTVYLQMNSLKPEDTAVYYCAAVRRAEEYDYCGQGTQVTVSS | low polyreactivity
QVQLVESGGGLVQAGGSLRLSCAASGSTFERYVMGWYSQAPGKARELVADINSGGSTNYADSVKGRFTISRDNAKNTVYLQMNSLKPEDTAVYYCAAKRRYYGPWSRMGYDYWGQGTQVTVSS | low polyreactivity
QVQLVESGGGLVQAGGSLRLSCAASGSTLWFNAMGWYRQAPGKERELVAAISFSSGSTYYADSVKGRFTISRDNAKNTVYLQMNSLKPEDTAVYYCAARLRWWGYDYWGQGTQVTVSS | high polyreactivity
QVQLVESGGGLVQAGGRLRLSCAASGSTFEEYAMGWYRQAPGKERELVAGITWGGGSTYYADSVKGRFTISRDNAKNTVYLQMNSQKPEDTAVYYCAAEPGWYADTPASDSKYDYWGQGTQGTVSS | low polyreactivity
QVQLVDSGGGLVQAGGSLRLSCAASGSIFYTNAMGWYRQAPGKERELVAAISYGGTTTYADSVKGRFTISRDNAKNTVYLQMNSLKPEDTAVYYCNADWLYYGYWGYGHIWYDYWGQGTQVTVSS | low polyreactivity
QVQLVESGGGLVQAGGSLRLSCAASGLTFNFNAMGWYRQAPGKERELVAAISYRAGSTYYADSVKGRFTISRDNAKNSVYLQMNSLKPEDTAVYYCAADGYYYLKSGTYVSDYWGQGTQVTVSS | low polyreactivity
QDQLVESRGDLVQAGGSLRLSCAASGSIFYDYAMRWYRQAPGKERELVAASDSGRNTTYADSVKGRFTISRDNAKKTVYFQMNSLKPEATAVYYCKTDPGWFDDSPPDPYIYGGYDYWGQGTQVTVSS | high polyreactivity
QVQLVESGGGLVQAGGSLRLSCAASRFTIIPYDMGRYRQAPGKERELVATISRGGSTNYADSVKGRFTISRENAKNTVYLQMNSLKPEDTAVYYCAAEYKVVFSQPYCEYDYWGQGTQVTVSS | low polyreactivity
QVQLVETGGGLVQAGGSLRLSCSASRLTFVYYTMGWYRQAPGKERELVAAITSSGGSTYYADSLKGRFTISRDNAKNTVYLQMNSLKPEDTAVSYCNAYWTYEFPSYDYWGPGTQVTVSS | low polyreactivity
QVQLVESGGGLVQAGGSLRLSCAASGSIFSSYVMGWYRQAPGKEREVVAAITSRGGSTYYADSVKGRFTISRDNAKNTVYLQMNSLKPEDTAVYYCAKGGTTWYWSGYRSIYFRYDYWGQGTQVTVSS | high polyreactivity
QVQLVESGGGLVQAGGSLRLSCAASGRIFGPYAMGWYRQAPGKERELVAAISGRGSSTYYADSVKGRFTLSRDNAKNTVYLQMNSLKPEDTAVYYCAKYPTYSYDYWGQGTQVTVSS | high polyreactivity
QVQLVESGGGLVQAGGSLRLSCAASGSTFGKYAMGWYRQAPGKERELVASISRSGASTYYADSVKGRFTISRDNAKNTVYVQMNSQKPEDTAVYYCNKARNPEGYWRYDYWGQGTQVTVSS | high polyreactivity
QVQLVESGGGLVQAGGSLRLSCDASGRTFAGYAMGWYRQAPGKERELVAAITTSGGRTYYADSVKGRFTISRDNAKNTVYLQMNSLKPEDTAVYDCNVASKGRYARYAAEYGSWGQGTQVTVSS | high polyreactivity
QVQLVESGGGLVQEGGSLRLSCAASGFTFVSNAMGWYRQAPGKERELVAAITYSGTRTYYADSVKGRFTISRDNAKTTVYLQMNSLKPEDTAVYYCAARRGYASAYYYWGQGTQVTVSS | high polyreactivity
QVQLVESGGGLVQAGGSLSLSCAASGSTFYSNAMGWYRQAPGKERELVAAISIGGSTYYADSVKGRFTISRDNAKNTVYLQMNSLKPEDTAVYYCAVDYRHSSSWNAGRWEMYYWGQGTQVTVSS | low polyreactivity
QVQLVESGGGLVQAGGSLRLSCAASGSIFAYYTMGWYRQAPGNERELVAALSRSGGSTNYADSVKGRFTISRDNAKNTVYLQMISLKPEDTAVYYCAVRRYSRRLFGYYYWGQGTQVTVSS | high polyreactivity
